# T1: MUT-8G (Caenorhabditis elegans, UniProt Q09487 172-535, N472S;Y473N;Q476E)
# T1 sequence: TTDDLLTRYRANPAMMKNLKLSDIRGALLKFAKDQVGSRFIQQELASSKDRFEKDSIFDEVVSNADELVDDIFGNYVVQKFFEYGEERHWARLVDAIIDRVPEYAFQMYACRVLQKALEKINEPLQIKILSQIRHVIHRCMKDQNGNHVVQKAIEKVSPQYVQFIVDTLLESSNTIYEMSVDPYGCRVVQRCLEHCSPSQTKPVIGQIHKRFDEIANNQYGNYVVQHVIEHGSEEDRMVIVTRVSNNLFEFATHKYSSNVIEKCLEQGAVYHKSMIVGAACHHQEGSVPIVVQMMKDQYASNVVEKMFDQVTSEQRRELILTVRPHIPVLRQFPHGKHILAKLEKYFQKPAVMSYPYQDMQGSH
# T2: MUT-#13 (K513R) (Caenorhabditis elegans, UniProt Q09487 172-535, K513R)
# T2 sequence: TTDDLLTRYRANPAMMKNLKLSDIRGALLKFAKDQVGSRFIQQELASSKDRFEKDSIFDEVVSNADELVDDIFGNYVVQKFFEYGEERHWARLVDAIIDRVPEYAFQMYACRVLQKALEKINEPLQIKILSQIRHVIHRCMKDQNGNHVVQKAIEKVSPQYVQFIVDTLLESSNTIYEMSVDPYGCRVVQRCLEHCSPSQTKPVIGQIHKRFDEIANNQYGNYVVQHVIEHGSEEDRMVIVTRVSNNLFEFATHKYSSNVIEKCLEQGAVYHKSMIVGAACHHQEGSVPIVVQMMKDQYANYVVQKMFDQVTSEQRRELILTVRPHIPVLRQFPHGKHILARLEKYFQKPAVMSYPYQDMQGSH
# T3: MUT-4G (Caenorhabditis elegans, UniProt Q09487 172-535, N318S;H319N;Q322E)
# T3 sequence: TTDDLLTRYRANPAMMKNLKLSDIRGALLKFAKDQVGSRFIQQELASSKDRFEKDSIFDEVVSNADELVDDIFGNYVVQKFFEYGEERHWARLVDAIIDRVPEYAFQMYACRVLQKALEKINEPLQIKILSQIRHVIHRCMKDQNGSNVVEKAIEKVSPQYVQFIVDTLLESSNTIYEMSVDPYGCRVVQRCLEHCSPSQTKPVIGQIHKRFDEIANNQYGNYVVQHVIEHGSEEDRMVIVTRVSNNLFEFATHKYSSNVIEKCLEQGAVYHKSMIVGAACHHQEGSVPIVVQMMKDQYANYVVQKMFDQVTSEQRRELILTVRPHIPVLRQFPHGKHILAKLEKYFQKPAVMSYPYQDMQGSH
# T4: PUF-8 WT (FP) (Caenorhabditis elegans, UniProt Q09487 172-535)
# T4 sequence: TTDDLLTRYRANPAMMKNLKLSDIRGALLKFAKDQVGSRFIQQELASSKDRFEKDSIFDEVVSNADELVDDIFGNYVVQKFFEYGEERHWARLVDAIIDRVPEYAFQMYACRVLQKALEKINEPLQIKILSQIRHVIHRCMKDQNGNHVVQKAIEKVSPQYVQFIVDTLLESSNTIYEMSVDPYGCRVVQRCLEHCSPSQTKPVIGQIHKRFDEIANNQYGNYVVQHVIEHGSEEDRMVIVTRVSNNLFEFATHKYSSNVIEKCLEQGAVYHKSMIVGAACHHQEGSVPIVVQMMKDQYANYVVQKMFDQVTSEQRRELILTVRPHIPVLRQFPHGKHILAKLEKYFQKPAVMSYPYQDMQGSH
# T5: MUT-#9 (Q476A) (Caenorhabditis elegans, UniProt Q09487 172-535, Q476A)
# T5 sequence: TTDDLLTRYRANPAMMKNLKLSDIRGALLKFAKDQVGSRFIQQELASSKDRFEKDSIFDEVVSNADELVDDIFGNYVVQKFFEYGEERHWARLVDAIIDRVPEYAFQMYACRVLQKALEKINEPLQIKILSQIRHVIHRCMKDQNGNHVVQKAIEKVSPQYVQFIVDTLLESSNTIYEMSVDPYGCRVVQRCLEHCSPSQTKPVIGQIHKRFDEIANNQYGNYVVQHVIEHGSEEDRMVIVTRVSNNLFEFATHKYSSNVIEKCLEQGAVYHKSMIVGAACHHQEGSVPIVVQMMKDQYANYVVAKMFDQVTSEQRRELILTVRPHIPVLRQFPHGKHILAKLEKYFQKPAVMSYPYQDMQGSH
# T6: MUT-#14 (Q476A/K513A) (Caenorhabditis elegans, UniProt Q09487 172-535, Q476A;K513A)
# T6 sequence: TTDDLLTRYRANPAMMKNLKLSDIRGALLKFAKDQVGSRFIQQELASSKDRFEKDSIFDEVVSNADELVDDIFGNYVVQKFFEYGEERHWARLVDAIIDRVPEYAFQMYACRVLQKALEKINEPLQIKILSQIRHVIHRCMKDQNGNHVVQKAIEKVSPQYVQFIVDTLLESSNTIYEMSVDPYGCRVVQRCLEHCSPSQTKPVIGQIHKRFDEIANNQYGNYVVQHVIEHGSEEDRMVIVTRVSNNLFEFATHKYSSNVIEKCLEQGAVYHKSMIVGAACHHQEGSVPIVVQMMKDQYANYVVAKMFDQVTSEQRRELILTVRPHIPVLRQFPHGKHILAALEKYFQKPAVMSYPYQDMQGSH
# How the values were obtained:
# Experiment in all cases: fluorescence polarization
# MUT-8G = biological target: T1, MUT-8G
# MUT-#13 (K513R) = biological target: T2, MUT-#13 (K513R)
# MUT-4G = biological target: T3, MUT-4G
# PUF-8 WT (FP) = biological target: T4, PUF-8 WT (FP)
# MUT-#9 (Q476A) = biological target: T5, MUT-#9 (Q476A)
# MUT-#14 (Q476A/K513A) = biological target: T6, MUT-#14 (Q476A/K513A)
binder,measurement,setting,value
UGUAAAUA (ssRNA) [PBE-5A FAM],binding result,MUT-8G,no binding
same,Kd,MUT-#13 (K513R),60 ± 13.2 nM
same,Kd,MUT-4G,239 ± 48 nM
same,Kd,PUF-8 WT (FP),2.49 ± 1.5 nM
same,Kd,MUT-#9 (Q476A),63.5 ± 11.1 nM
same,Kd,MUT-#14 (Q476A/K513A),210 ± 27.4 nM

# From paper PMC8464079
